Measured values: article PMC9971907, “Cryo-EM analysis of V/A-ATPase intermediates reveals the transition of the ground-state structure to steady-state structures by sequential ATP binding” (The Journal of Biological Chemistry, 2023)

Molecular target: T1, V/A-ATPase D subunit, Thermus thermophilus (T. thermophilus, UniProt O87880 1-223)
T1 construct: V/A-ATPase D subunit (central rotor), Thermus thermophilus; also called part of the DF rotor; DF axis
T1 sequence: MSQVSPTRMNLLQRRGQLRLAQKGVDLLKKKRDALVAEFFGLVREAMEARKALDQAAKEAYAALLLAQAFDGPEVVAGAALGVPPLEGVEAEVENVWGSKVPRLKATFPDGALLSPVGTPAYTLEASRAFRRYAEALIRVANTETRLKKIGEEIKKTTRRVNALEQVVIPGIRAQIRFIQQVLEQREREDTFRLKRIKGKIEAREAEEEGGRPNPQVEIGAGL
Test: cryo-EM structure; nucleotide-free V/A-ATPase in nanodiscs, 4 uM enzyme mixed with an equal volume of x2 RB buffer (50 mM Tris-Cl pH 8.0, 100 mM KCl, 2 mM MgCl2, 5 mM PEP, 100 ug/ml PK, 20 mM ammonium sulfate) with ATP-Mg (low ATP, 60 s; or saturating ATP, 5 s or 30 s) at 25 °C; single-particle analysis, membrane domain subtracted, focused refinement of V1EG
Conditions: both partners purified

B1: V/A-ATPase F subunit, Thermus thermophilus (natural protein, T. thermophilus)
chain: MAVIADPETAQGFRLAGLEGYGASSAEEAQSLLETLVERGGYALVAVDEALLPDPERAVERLMRGRDLPVLLPIAGLKEAFQGHDVEGYMRELVRKTIGFDIKL
notes: V/A-ATPase F subunit (central rotor), Thermus thermophilus; also called part of the DF rotor; DF axis
B1: binds.
